Reference: CN114395044A (HEFEN TIANKPORT IMMUNOLOGICAL DRUG CO LTD, dated 2022)

Tests used:
[1] = molecular target: T1, 人B7H6 (ACRO biosystems, 货号B76-H52H8) (human, UniProt Q68D85 25-262); assay: ELISA, human B7H6 coated at 2 μg/mL, HRP rabbit anti-human IgG, OD450
T1 construct: Bought protein coated on the ELISA plate at 2 μg/mL; also called 人B7H6蛋白; B7H6抗原
T1 sequence (looked up): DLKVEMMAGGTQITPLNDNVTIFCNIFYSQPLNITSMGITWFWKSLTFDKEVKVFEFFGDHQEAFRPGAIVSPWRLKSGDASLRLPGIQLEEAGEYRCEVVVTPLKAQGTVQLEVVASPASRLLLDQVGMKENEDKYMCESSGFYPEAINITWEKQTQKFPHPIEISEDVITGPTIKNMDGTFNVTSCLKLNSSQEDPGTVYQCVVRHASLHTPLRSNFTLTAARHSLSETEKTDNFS

[2] = molecular target: T2, 人CD16a抗原 (ACRO biosystems, 货号CDA-H5220) (human, UniProt P08637 17-208); assay: ELISA, human CD16a coated at 2 μg/mL, HRP rabbit anti-human IgG, OD450
T2 construct: Bought protein coated on the ELISA plate at 2 μg/mL; also called 人CD16a蛋白; CD16抗原
T2 sequence (P08637 17-208 limits assumed): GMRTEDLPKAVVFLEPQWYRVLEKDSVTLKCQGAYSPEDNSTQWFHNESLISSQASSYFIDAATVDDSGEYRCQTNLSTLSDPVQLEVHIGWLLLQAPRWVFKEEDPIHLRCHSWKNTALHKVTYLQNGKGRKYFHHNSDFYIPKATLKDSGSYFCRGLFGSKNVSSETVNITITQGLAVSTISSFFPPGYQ

binding result [1]: binds
binding result [2]: binds
B1: CD16×B7H6重组双特异性抗体 (bispecific antibody, human IgG1, L234A L235A)
chain 1: not shown
chain 2: DIVLTQTPLSLSVTPGQPASISCKASQSVDYDGDSYMNWYLQKPGQPPQLLIYAASTLHSGIPDRFSGSGSGTDFTLKISRVEAEDVGVYYCQQSKEDPRTFGQGTKLEIKGGGGSGGGGSGGGGSEVQLVQSGAEVKKPGASVKVSCKASGYTFTDYNMDWVRQAPGQGLEWIGDINPNNGGTLYNQKFRGRVTLTVDTSISTAYMELSRLRSDDTAVYYCARSEVFYGNYADYWGQGTTVTVSSEPKSCDKTHTCPPCPAPEAAGGPSVFLFPPKPKDTLMISRTPEVTCVVVDVSHEDPEVKFNWYVDGVEVHNAKTKPREEQYNSTYRVVSVLTVLHQDWLNGKEYKCKVSNKALPAPIEKTISKAKGQPREPQVCTLPPSRDELTKNQVSLSCAVKGFYPSDIAVEWESNGQPENNYKTTPPVLDSDGSFFLVSKLTVDKSRWQQGNVFSCSVMHEALHNHYTQKSLSLSPGK
notes: Heterodimer of two scFv-Fc chains (knob-into-hole); Expressed in ExpiCHO-S, purified on protein A; also called NKmab; CD16×B7H6双特异性抗体
